Test results: patent US20240018502A1
Positions count from the first letter of the chain named. In names and notes the source's numbering stands.

Target: plasma purified human complement protein C3 (human) (UniProt P01024)
Assay: cell-based or functional assay

Chain of plasma purified human complement protein C3 (human) (P01024 23-667, chain 1 of 2): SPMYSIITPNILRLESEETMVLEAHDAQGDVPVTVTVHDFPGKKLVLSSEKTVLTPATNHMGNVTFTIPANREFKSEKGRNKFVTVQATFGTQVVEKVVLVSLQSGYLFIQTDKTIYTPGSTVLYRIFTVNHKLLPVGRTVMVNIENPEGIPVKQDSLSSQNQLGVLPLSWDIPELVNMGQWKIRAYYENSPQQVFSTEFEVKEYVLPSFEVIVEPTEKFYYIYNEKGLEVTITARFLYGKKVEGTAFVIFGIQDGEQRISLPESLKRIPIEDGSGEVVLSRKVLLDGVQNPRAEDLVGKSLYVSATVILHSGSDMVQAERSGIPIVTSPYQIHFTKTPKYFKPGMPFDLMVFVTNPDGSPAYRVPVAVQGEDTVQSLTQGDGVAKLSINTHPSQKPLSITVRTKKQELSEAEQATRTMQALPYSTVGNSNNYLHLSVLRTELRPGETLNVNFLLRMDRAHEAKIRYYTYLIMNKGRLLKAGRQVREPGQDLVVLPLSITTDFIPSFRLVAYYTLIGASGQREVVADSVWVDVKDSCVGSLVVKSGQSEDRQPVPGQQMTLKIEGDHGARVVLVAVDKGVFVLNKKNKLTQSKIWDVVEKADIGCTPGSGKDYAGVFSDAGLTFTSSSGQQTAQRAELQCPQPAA
Chain of plasma purified human complement protein C3 (human) (P01024 672-1663, chain 2 of 2): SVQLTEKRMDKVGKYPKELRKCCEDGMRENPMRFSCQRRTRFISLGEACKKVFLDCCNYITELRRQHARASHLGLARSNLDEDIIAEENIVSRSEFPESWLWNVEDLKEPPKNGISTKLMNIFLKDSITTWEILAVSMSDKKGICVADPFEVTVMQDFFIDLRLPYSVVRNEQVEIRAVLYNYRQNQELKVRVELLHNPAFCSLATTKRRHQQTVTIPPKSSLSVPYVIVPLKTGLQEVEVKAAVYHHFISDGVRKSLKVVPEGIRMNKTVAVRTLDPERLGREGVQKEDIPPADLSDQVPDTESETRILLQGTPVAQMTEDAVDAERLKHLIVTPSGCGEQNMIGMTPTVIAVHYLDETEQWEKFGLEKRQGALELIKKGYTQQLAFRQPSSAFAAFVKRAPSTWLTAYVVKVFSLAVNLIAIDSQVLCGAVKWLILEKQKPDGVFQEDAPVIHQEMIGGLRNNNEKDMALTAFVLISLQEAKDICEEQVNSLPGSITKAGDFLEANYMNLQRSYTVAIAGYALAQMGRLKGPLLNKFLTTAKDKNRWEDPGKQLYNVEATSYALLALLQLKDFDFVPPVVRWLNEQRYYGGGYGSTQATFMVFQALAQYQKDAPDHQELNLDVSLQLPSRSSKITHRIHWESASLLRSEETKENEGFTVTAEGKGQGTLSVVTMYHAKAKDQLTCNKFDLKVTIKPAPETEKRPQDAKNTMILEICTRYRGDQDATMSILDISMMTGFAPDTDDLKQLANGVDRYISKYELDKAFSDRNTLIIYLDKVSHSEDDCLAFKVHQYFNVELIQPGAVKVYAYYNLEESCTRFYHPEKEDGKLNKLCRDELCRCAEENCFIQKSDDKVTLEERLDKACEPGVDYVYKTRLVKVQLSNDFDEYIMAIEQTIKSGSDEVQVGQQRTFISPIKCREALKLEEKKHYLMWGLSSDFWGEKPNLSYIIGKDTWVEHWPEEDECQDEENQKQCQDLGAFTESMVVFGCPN

B1: MTSP-1 protease domain Q38H/I41S/D60bT/F60eS/Y60gW/D96K/F97G/F99L/C122S/G151H/Q175L/Q192D (enzyme)
chain: VVGGTDADEGEWPWQVSLHALGHGHSCGASLISPNWLVSAAHCYIDTRGSRWSDPTQWTAFLGLHDQSQRSAPGVQERRLKRIISHPFFNKGTLDYDIALLELEKPAEYSSMVRPISLPDASHVFPAGKAIWVTGWGHTQYGGTHALILQKGEIRVINQTTCENLLPQLITPRMMCVGFLSGGVDSCDGDSGGPLSSVEADGRIFQAGVVSWGDGCAQRNKPGVYTRLPLFRDWIKENTGV
- EC50 hC3 cleavage: 7.34 nM

B2: MTSP-1 protease domain I41S/F97del/T98S/F99L/C122S/Q192S (enzyme)
chain: VVGGTDADEGEWPWQVSLHALGQGHSCGASLISPNWLVSAAHCYIDDRGFRYSDPTQWTAFLGLHDQSQRSAPGVQERRLKRIISHPFFNDSLDYDIALLELEKPAEYSSMVRPISLPDASHVFPAGKAIWVTGWGHTQYGGTGALILQKGEIRVINQTTCENLLPQQITPRMMCVGFLSGGVDSCSGDSGGPLSSVEADGRIFQAGVVSWGDGCAQRNKPGVYTRLPLFRDWIKENTGV
- EC50 hC3 cleavage: 23.2 nM

B3: MTSP-1 protease domain I41S/ins97aV/C122S/Q192D (enzyme)
chain: VVGGTDADEGEWPWQVSLHALGQGHSCGASLISPNWLVSAAHCYIDDRGFRYSDPTQWTAFLGLHDQSQRSAPGVQERRLKRIISHPFFNDFVTFDYDIALLELEKPAEYSSMVRPISLPDASHVFPAGKAIWVTGWGHTQYGGTGALILQKGEIRVINQTTCENLLPQQITPRMMCVGFLSGGVDSCDGDSGGPLSSVEADGRIFQAGVVSWGDGCAQRNKPGVYTRLPLFRDWIKENTGV
- EC50 hC3 cleavage: 336 nM

B4: MTSP-1 protease domain Q38W/I41S/D96R/ins97aA/C122S/G151N/Q192A (enzyme)
chain: B3 chain with Q23W, D91R, V93A, G146N, D189A
- EC50 hC3 cleavage: 9.5 nM

B5: MTSP-1 protease domain I41S/Y60gW/ins97aN/F99L/C122S/Q175R/Q192T (enzyme)
chain: B3 chain with Y52W, V93N, F95L, Q170R, D189T
- EC50 hC3 cleavage: 12 nM

B6: MTSP-1 protease domain I41A/ins97aY/F99L/C122S/Q175R/Q192H (enzyme)
chain: B3 chain with S26A, V93Y, F95L, Q170R, D189H
- EC50 hC3 cleavage: 14.8 nM

B7: MTSP-1 protease domain Q38H/I41T/D96M/ins97aA/C122S/G151D (enzyme)
chain: B3 chain with Q23H, S26T, D91M, V93A, G146D, D189Q
- EC50 hC3 cleavage: 10.8 nM

B8: MTSP-1 protease domain Q38H/I41S/D96Q/ins97aT/C122S/G151N/Q192A (enzyme)
chain: B3 chain with Q23H, D91Q, V93T, G146N, D189A
- EC50 hC3 cleavage: 17.9 nM

B9: MTSP-1 protease domain I41A/Y60gW/ins97aE/F99L/C122S/Q175M/Q192T (enzyme)
chain: B3 chain with S26A, Y52W, V93E, F95L, Q170M, D189T
- EC50 hC3 cleavage: 8.9 nM

B10: MTSP-1 protease domain I41S/F97G/ins97aA/T98L/C122S/Q192A (enzyme)
chain: B3 chain with F92G, V93A, T94L, D189A
- EC50 hC3 cleavage: 6.75 nM

B11: MTSP-1 protease domain I41S/ins97aT/F99L/C122S/Q175R/Q192H (enzyme)
chain: B3 chain with V93T, F95L, Q170R, D189H
- EC50 hC3 cleavage: 27.5 nM

B12: MTSP-1 Q38H/I41S/D60bT/F60eS/D96K/F97G/ins97aV/T98P/F99L/C122S/G151H/Q175L/Q192D (enzyme)
chain: B3 chain with Q23H, D47T, F50S, D91K, F92G, T94P, F95L, G146H, Q170L
- EC50 of hC3 cleavage: 22.2 nM

B13: MTSP-1 protease domain Q38H/I41S/D96K/ins97aT/C122S/G151K/Q192A (enzyme)
chain: B3 chain with Q23H, D91K, V93T, G146K, D189A
- EC50 hC3 cleavage: 19.2 nM

B14: MTSP-1 protease domain I41T/ins97aA/F99Y/C122S/Q175L/Q192A (enzyme)
chain: B3 chain with S26T, V93A, F95Y, Q170L, D189A
- EC50 hC3 cleavage: 28 nM

B15: MTSP-1 protease domain I41T/F97R/ins97aV/T98L/C122S/Q192S (enzyme)
chain: B3 chain with S26T, F92R, T94L, D189S
- EC50 hC3 cleavage: 13.2 nM

B16: MTSP-1 protease domain I41S/F97A/ins97aV/T98L/C122S/Q192A (enzyme)
chain: B3 chain with F92A, T94L, D189A
- EC50 hC3 cleavage: 5.3 nM

B17: MTSP-1 Q38H/I41S/D60bT/Y60gW/D96K/F97G/ins97aV/T98P/F99L/C122S/G151H/Q175L/Q192D (enzyme)
chain: B3 chain with Q23H, D47T, Y52W, D91K, F92G, T94P, F95L, G146H, Q170L
- EC50 of hC3 cleavage: 8.64 nM

B18: MTSP-1 protease domain Q38Y/I41A/D96I/ins97aQ/C122S (enzyme)
chain: B3 chain with Q23Y, S26A, D91I, V93Q, D189Q
- EC50 hC3 cleavage: 4.26 nM

B19: MTSP-1 Q38H/I41S/F60eS/Y60gW/D96K/F97G/ins97aV/T98P/F99L/C122S/G151H/Q175L/Q192D (enzyme)
chain: B3 chain with Q23H, F50S, Y52W, D91K, F92G, T94P, F95L, G146H, Q170L
- EC50 of hC3 cleavage: 13.1 nM

B20: MTSP-1 protease domain Q38H/I41A/D96A/ins97aA/C122S/G151D/Q192T (enzyme)
chain: B3 chain with Q23H, S26A, D91A, V93A, G146D, D189T
- EC50 hC3 cleavage: 9.25 nM

B21: MTSP-1 protease domain Q38H/I41S/D96S/ins97aK/C122S/G151N/Q192A (enzyme)
chain: B3 chain with Q23H, D91S, V93K, G146N, D189A
- EC50 hC3 cleavage: 16.7 nM

B22: MTSP-1 protease domain I41D/F99L/C122S/G151N/Q192T/D217E (enzyme)
chain: VVGGTDADEGEWPWQVSLHALGQGHDCGASLISPNWLVSAAHCYIDDRGFRYSDPTQWTAFLGLHDQSQRSAPGVQERRLKRIISHPFFNDFTLDYDIALLELEKPAEYSSMVRPISLPDASHVFPAGKAIWVTGWGHTQYGGTNALILQKGEIRVINQTTCENLLPQQITPRMMCVGFLSGGVDSCTGDSGGPLSSVEADGRIFQAGVVSWGEGCAQRNKPGVYTRLPLFRDWIKENTGV
- EC50 hC3 cleavage: 22 nM

B23: MTSP-1 protease domain I41S/F97D/F99L/C122S/Q192V (enzyme)
chain: B22 chain with D26S, F92D, N145G, T188V, E214D
- EC50 hC3 cleavage: 31 nM

B24: MTSP-1 protease domain I41E/F97L/F99L/C122S/Q192A (enzyme)
chain: B22 chain with D26E, F92L, N145G, T188A, E214D
- EC50 hC3 cleavage: 47.4 nM

B25: MTSP-1 protease domain D96E/C122S/G151N/Q192T (enzyme)
chain: B22 chain with D26I, D91E, L94F, E214D
- EC50 hC3 cleavage: 298 nM

B26: MTSP-1 protease domain I41A/Y60gW/D96F/F97G/F99M/C122S/Q175W/Q192A (enzyme)
chain: B1 chain with H23Q, S26A, T47D, S50F, K91F, L94M, H145G, L169W, D188A
- EC50 hC3 cleavage: 4.06 nM

B27: MTSP-1 protease domain I41D/C122S/G151N/Q192T/D217E (enzyme)
chain: B22 chain with L94F
- EC50 hC3 cleavage: 34.2 nM

B28: MTSP-1 protease domain I41S/F97V/T98N/F99L/C122S/Q192S (enzyme)
chain: B22 chain with D26S, F92V, T93N, N145G, T188S, E214D
- EC50 hC3 cleavage: 29.4 nM

B29: MTSP-1 protease domain I41D/F60eI/D96E/F99L/C122S/G151N/Q192T (enzyme)
chain: B22 chain with F50I, D91E, E214D
- EC50 hC3 cleavage: 47.9 nM

B30: MTSP-1 protease domain I41G/Y60gW/F99L/C122S/Q175R/Q192S (enzyme)
chain: B22 chain with D26G, Y52W, N145G, Q169R, T188S, E214D
- EC50 hC3 cleavage: 6.95 nM

B31: MTSP-1 protease domain Y59F/C122S/G151N/Q192T (enzyme)
chain: B22 chain with D26I, Y44F, L94F, E214D
- EC50 hC3 cleavage: 288 nM

B32: MTSP-1 protease domain I41D/F99L/C122S/I136M/G151N/Q192T/D217L/K224R (enzyme)
chain: B22 chain with I131M, E214L, K221R
- EC50 hC3 cleavage: 32.2 nM

B33: MTSP-1 protease domain I41S/F97L/F99L/C122S/Q192S (enzyme)
chain: B22 chain with D26S, F92L, N145G, T188S, E214D
- EC50 hC3 cleavage: 19.1 nM
